Source: publication PMC3657613 (Nature chemical biology, 2012)

Columns and labels:
[1] = biological target: MC4R Δ1–24 (Homo sapiens, UniProt P32245); test: MC4R activity, cAMP-responsive luciferase reporter in transfected HEK293 cells; format: cell-based; details: for stimulation of MC4R Δ1–24 by peptide (efficacy): compared with constitutive activity of wild-type MC4R, normalized to membrane expression, triplicate, Fig. 2a
[2] = tested on: wild-type MC4R; test: as above; format: cell-based, human; details: constitutive activity; Fig. 1f

Chain of MC4R Δ1–24 (P32245 25-332, stated change not applied): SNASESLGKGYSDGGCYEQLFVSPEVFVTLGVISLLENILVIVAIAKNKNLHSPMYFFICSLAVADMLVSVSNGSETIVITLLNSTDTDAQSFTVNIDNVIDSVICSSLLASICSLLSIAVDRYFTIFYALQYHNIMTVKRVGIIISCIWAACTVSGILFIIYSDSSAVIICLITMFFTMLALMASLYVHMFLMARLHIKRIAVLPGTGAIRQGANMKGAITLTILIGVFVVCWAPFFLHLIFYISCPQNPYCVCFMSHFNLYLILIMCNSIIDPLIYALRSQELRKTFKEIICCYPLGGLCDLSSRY

Substance	stimulation of MC4R Δ1–24 by peptide (efficacy) [1]	further results
MC4R 14–19 W16A: MC4R 14–19 hexapeptide with W16A substitution (HLANRS)	markedly disrupted MC4R 14–19 efficacy	
MC4R 14–19 H14A: MC4R 14–19 hexapeptide with H14A substitution (ALWNRS)	markedly disrupted MC4R 14–19 efficacy	
MC4R 2–19: smaller overlapping peptide spanning the MC4R N-terminal domain, residues 2–19 (VNSTHRGMHTSLHLWNRS)	not significantly different from the constitutive activity of wild-type MC4R	
MC4R 14–26: smaller overlapping peptide spanning the MC4R N-terminal domain, residues 14–26 (HLWNRSSYRLHSN)	not significantly different from the constitutive activity of wild-type MC4R	
Agouti-related protein (SSRRCVRLHESCLGQQVPCCDPCATCYCRFFNAFCYCRKLGTAMNPCSRT; UniProt O00253 83-132, looked up) [AgRP]		AgRP inverse agonism of wild-type MC4R [2]: inverse agonism of the wild-type receptor; AgRP antagonism of MC4R 2–26 activation of MC4R Δ1–24 ([1]; Fig. 1f): inhibits the activation of MC4R Δ1–24 by MC4R 2–26 with similar potency as its inverse agonism of the wild-type receptor; effect on residual N terminal–independent constitutive activity of MC4R Δ1–24 ([1]; Supplementary Fig. 3a): inhibits the residual N terminal–independent constitutive activity; inhibition of αMSH-induced receptor activation ([1]; receptor with or without the N-terminal domain, Supplementary Fig. 3e): inhibits αMSH-induced receptor activation independent of the absence or presence of the N-terminal domain
MC4R 14–19 L15A: MC4R 14–19 hexapeptide with L15A substitution (HAWNRS)	not significantly different from the constitutive activity of wild-type MC4R	
MC4R 14–19 N17A: MC4R 14–19 hexapeptide with N17A substitution (HLWARS)	not significantly different from the constitutive activity of wild-type MC4R	
MC4R 8–26: smaller overlapping peptide spanning the MC4R N-terminal domain, residues 8–26 (GMHTSLHLWNRSSYRLHSN)	not significantly different from the constitutive activity of wild-type MC4R	
MC4R 14–19 S19A: MC4R 14–19 hexapeptide with S19A substitution (HLWNRA)	not significantly different from the constitutive activity of wild-type MC4R	
HLWNRS [MC4R 14–19]	not significantly different from the constitutive activity of wild-type MC4R	
MC4R 8–20: smaller overlapping peptide spanning the MC4R N-terminal domain, residues 8–20 (GMHTSLHLWNRSS)	not significantly different from the constitutive activity of wild-type MC4R	
MC4R 14–19 R18L: MC4R 14–19 hexapeptide with R18L substitution (HLWNLS)	markedly disrupted MC4R 14–19 efficacy	
